One data set addresses T1, PVSLRSGS (SEQ ID NO: 1).
T1 chain: PVSLRSGS

In a further data set the target is T2, PANLVAPDP (SEQ ID NO: 6).
T2 chain: PANLVAPDP

A further data set deals with T3, RPLALWRS (SEQ ID NO: 3).
T3 chain: RPLALWRS

Data set [1] deals with T4, APAGLIVPYN (SEQ ID NO: 5).
T4 chain: APAGLIVPYN

A further data set has as its target T5, TQKPLGLS (SEQ ID NO: 4).
T5 chain: TQKPLGLS

The target in data set [2] is T6, IVGRPRHQGV (SEQ ID NO: 7).
T6 chain: IVGRPRHQGV

Another data set deals with T7, RSKYLATA (SEQ ID NO: 8).
T7 chain: RSKYLATA

The text below walks through data of patent US20230144608.

B1: MMP-2 (protein)
chain: YNFFPRKPKWDKNQITYRIIGYTPDLDPETVDDAFARAFQVWSDVTPLRFSRIHDGEADIMINFGRWEHGDGYPFDGKDGLLAHAFAPGTGVGGDSHFDDDELWTLGEGQVVRVKYGNADGEYCKFPFLFNGKEYNSCTDTGRSDGFLWCSTTYNFEKDGKYGFCPHEALFTMGGNAEGQPCKFPFRFQGTSYDSCTTEGRTDGYRWCGTTEDYDRDKKYGFCPETAMSTVGGNSEGAPCVFPFTFLGNKYESCTSAGRSDGKMWCATTANYDDDRKWGFCPDQGYSLFLVAAHEFGHAMGLEHSQDPGALMAPIYTYTKNFRLSQDDIKGIQELYGASPDIDLGTGPTPTLGPVTPEICKQDIVFDGIAQIRGEIFFFKDRFIWRTVTPRDKPMGPLLVATFWPELPEKIDAVYEAPQEEKAVFFAGNEYWIYSASTLERGYPKPLTSLGLPPDVQRVDAAFNWSKNKKTYIFAGDKFWRYNEVKKKMDPGFPKLIADAWNAIPDNLDAVVDLQGGGHSYFFKGAYYLKLENQSLKSVKFGSIKSDWLGC
Turning to B1, the initial rate of cleavage by recombinant protease is 1.9 µM/h with PVSLRSGS (SEQ ID NO: 1); 31.2 µM/h in the data set with PANLVAPDP (SEQ ID NO: 6); 1.1 µM/h in the data set with RPLALWRS (SEQ ID NO: 3); 29.6 µM/h in data set [1]; 11.8 µM/h in the data set with TQKPLGLS (SEQ ID NO: 4); 0 µM/h in data set [2]. The initial rate of cleavage by recombinant protease with RSKYLATA (SEQ ID NO: 8) was determined as 0 µM/h.

B2: MMP-1 (protein)
chain: FVLTEGNPRWEQTHLTYRIENYTPDLPRADVDHAIEKAFQLWSNVTPLTFTKVSEGQADIMISFVRGDHRDNSPFDGPGGNLAHAFQPGPGIGGDAHFDEDERWTNNFREYNLHRVAAHELGHSLGLSHSTDIGALMYPSYTFSGDVQLAQDDIDGIQAIYGRSQNPVQPIGPQTPKACDSKLTFDAITTIRGEVMFFKDRFYMRTNPFYPEVELNFISVFWPQLPNGLEAAYEFADRDEVRFFKGNKYWAVQGQNVLHGYPKDIYSSFGFPRTVKHIDAALSEENTGKTYFFVANKYWRYDEYKRSMDPGYPKMIAHDFPGIGHKVDAVFMKDGFFYFFHGTRQYKFDPKTKRILTLQKANSWFNCRKN
Take B2: the initial rate of cleavage by recombinant protease with PVSLRSGS (SEQ ID NO: 1) stood at 0 µM/h; with PANLVAPDP (SEQ ID NO: 6) it was 2.7 µM/h; in the data set with RPLALWRS (SEQ ID NO: 3) it was 0.1 µM/h; in data set [1], 0 µM/h; with TQKPLGLS (SEQ ID NO: 4), 0 µM/h; in data set [2], 0 µM/h. Besides, the initial rate of cleavage by recombinant protease in the data set with RSKYLATA (SEQ ID NO: 8) was 0 µM/h.

B3: MMP-7 (protein)
chain: YSLFPNSPKWTSKVVTYRIVSYTRDLPHITVDRLVSKALNMWGKEIPLHFRKVVWGTADIMIGFARGAHGDSYPFDGPGNTLAHAFAPGTGLGGDAHFDEDERWTDGSSLGINFLYAATHELGHSLGMGHSSDPNAVMYPTYGNGDPQNFKLSQDDIKGIQKLYGKRSNSRKK
Turning to B3, the initial rate of cleavage by recombinant protease with PVSLRSGS (SEQ ID NO: 1) came to 0.2 µM/h; in the data set with PANLVAPDP (SEQ ID NO: 6), 2.5 µM/h; in the data set with RPLALWRS (SEQ ID NO: 3), 0.2 µM/h; in data set [1] it was 2.4 µM/h; with TQKPLGLS (SEQ ID NO: 4), 1.8 µM/h; in data set [2] it was 0 µM/h. Moreover, in the data set with RSKYLATA (SEQ ID NO: 8), the initial rate of cleavage by recombinant protease is 0 µM/h.
